Reference: patent US20060286609A1 (BIOCHECK, published 2006)

T1: Mouse Id4: Histidine (mouse, UniProt P41139 1-161, limits assumed)
T1 construct: E. coli fusion protein (vector pGW07); also called m-Id4: His; not shown: His-tag
T1 sequence (looked up): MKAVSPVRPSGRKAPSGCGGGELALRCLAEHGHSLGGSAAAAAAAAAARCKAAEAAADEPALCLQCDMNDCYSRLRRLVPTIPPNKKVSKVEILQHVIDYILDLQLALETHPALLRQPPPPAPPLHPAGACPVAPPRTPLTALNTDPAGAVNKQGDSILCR

T2: Human Id4: Histidine (human, UniProt P47928 1-161, limits assumed)
T2 construct: E. coli fusion protein (vector pGW07); also called h-Id4: His; not shown: His-tag
T2 sequence (looked up): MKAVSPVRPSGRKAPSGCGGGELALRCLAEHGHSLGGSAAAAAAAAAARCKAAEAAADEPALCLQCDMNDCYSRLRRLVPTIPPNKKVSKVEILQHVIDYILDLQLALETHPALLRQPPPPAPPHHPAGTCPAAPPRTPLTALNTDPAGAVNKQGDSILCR

T3: Mouse Id1: Histidine (mouse, UniProt P20067-2 1-148)
T3 construct: E. coli fusion protein (vector pGW07); also called m-Id1-His; not shown: His-tag
T3 sequence: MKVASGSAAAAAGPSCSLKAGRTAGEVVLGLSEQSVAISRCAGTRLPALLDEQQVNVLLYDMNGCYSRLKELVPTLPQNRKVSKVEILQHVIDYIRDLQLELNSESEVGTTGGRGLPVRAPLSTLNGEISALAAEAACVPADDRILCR

T4: Mouse Id2: Histidine (mouse, UniProt P41136 1-134, limits assumed)
T4 construct: E. coli fusion protein (vector pGW07); also called m-Id2: His; not shown: His-tag
T4 sequence (looked up): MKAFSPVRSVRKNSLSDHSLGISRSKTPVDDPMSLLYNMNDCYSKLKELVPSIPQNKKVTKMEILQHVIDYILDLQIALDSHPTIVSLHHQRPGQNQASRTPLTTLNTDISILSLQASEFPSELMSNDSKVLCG

T5: Human Id2: Histidine (human, UniProt Q02363 1-134, limits assumed)
T5 construct: E. coli fusion protein (vector pGW07); also called h-Id2: His; not shown: His-tag
T5 sequence (looked up): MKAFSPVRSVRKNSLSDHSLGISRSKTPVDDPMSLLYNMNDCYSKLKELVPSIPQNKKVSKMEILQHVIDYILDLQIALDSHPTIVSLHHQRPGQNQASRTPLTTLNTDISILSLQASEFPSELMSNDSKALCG

T6: Mouse Id3: Histidine (mouse, UniProt P41133 1-119, limits assumed)
T6 construct: E. coli fusion protein (vector pGW07); also called m-Id3: His; not shown: His-tag
T6 sequence (looked up): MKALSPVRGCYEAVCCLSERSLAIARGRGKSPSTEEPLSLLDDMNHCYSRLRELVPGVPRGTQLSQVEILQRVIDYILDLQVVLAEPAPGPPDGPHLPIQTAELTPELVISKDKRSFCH

T7: Human Id3: Histidine (human, UniProt Q02535 1-119, limits assumed)
T7 construct: E. coli fusion protein (vector pGW07); also called h-Id3: His; not shown: His-tag
T7 sequence (looked up): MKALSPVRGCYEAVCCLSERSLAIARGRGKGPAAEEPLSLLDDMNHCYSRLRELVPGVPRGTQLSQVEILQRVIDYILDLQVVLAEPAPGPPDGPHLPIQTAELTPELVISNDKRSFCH


Columns and labels:
[1] = biological target: Human Id1: Histidine (human) (UniProt P41134); test: ELISA, coated antigen, Ab 0.025 ug/ml
[2] = biological target: Human Id1: Histidine (human) (UniProt P41134); test: ELISA, coated antigen, Ab 0.050 ug/ml
Mouse Id4: Histidine [3] = biological target: T1, Mouse Id4: Histidine; test: ELISA, coated antigen, Ab 0.050 ug/ml
Human Id4: Histidine [4] = biological target: T2, Human Id4: Histidine; test: ELISA, coated antigen, Ab 0.050 ug/ml
Mouse Id1: Histidine [5] = biological target: T3, Mouse Id1: Histidine; test: ELISA, coated antigen, Ab 0.050 ug/ml
Mouse Id2: Histidine [6] = biological target: T4, Mouse Id2: Histidine; test: ELISA, coated antigen, Ab 0.050 ug/ml
Human Id2: Histidine [7] = biological target: T5, Human Id2: Histidine; test: ELISA, coated antigen, Ab 0.050 ug/ml
Mouse Id3: Histidine [8] = biological target: T6, Mouse Id3: Histidine; test: ELISA, coated antigen, Ab 0.050 ug/ml
Human Id3: Histidine [9] = biological target: T7, Human Id3: Histidine; test: ELISA, coated antigen, Ab 0.050 ug/ml
[10] = biological target: Human Id1: Histidine (human) (UniProt P41134); test: ELISA, coated antigen, Ab 0.100 ug/ml
Human Id4: Histidine [11] = biological target: T2, Human Id4: Histidine; test: ELISA, coated antigen, Ab 0.100 ug/ml
Human Id3: Histidine [12] = biological target: T7, Human Id3: Histidine; test: ELISA, coated antigen, Ab 0.100 ug/ml
[13] = biological target: Human Id1: Histidine (human) (UniProt P41134); test: ELISA, coated antigen, Ab 0.250 ug/ml
[14] = biological target: Human Id1: Histidine (human) (UniProt P41134); test: ELISA, coated antigen, Ab 0.500 ug/ml
[15] = biological target: Human Id1: Histidine (human) (UniProt P41134); test: ELISA, coated antigen, Ab 0.005 ug/ml
[16] = biological target: Human Id1: Histidine (human) (UniProt P41134); test: ELISA, coated antigen, Ab 0.010 ug/ml
Mouse Id4: Histidine [17] = biological target: T1, Mouse Id4: Histidine; test: ELISA, coated antigen, Ab 0.010 ug/ml
Human Id4: Histidine [18] = biological target: T2, Human Id4: Histidine; test: ELISA, coated antigen, Ab 0.010 ug/ml
Mouse Id1: Histidine [19] = biological target: T3, Mouse Id1: Histidine; test: ELISA, coated antigen, Ab 0.010 ug/ml
Mouse Id2: Histidine [20] = biological target: T4, Mouse Id2: Histidine; test: ELISA, coated antigen, Ab 0.010 ug/ml
Human Id2: Histidine [21] = biological target: T5, Human Id2: Histidine; test: ELISA, coated antigen, Ab 0.010 ug/ml
Mouse Id3: Histidine [22] = biological target: T6, Mouse Id3: Histidine; test: ELISA, coated antigen, Ab 0.010 ug/ml
Human Id3: Histidine [23] = biological target: T7, Human Id3: Histidine; test: ELISA, coated antigen, Ab 0.010 ug/ml
[24] = biological target: Human Id1: Histidine (human) (UniProt P41134); test: ELISA, coated antigen, Ab 0.000 ug/ml (blank, diluent only)

Human Id1: Histidine (human), sequence (P41134 whole entry): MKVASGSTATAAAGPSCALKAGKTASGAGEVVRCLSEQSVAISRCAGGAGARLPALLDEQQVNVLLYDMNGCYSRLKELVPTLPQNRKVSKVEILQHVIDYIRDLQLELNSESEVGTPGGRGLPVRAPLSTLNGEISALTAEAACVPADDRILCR

| A450 [1] [A450] | A450 [2] [A450] | A450 (Mouse Id4: Histidine [3]) [A450] | A450 (Human Id4: Histidine [4]) [A450] | A450 (Mouse Id1: Histidine [5]) [A450] | A450 (Mouse Id2: Histidine [6]) [A450] | A450 (Human Id2: Histidine [7]) [A450] | A450 (Mouse Id3: Histidine [8]) [A450] | A450 (Human Id3: Histidine [9]) [A450] | A450 [10] [A450] | A450 (Human Id4: Histidine [11]) [A450] | A450 (Human Id3: Histidine [12]) [A450] | A450 [13] [A450] | A450 [14] [A450] | A450 [15] [A450] | A450 [16] [A450] | A450 (Mouse Id4: Histidine [17]) [A450] | A450 (Human Id4: Histidine [18]) [A450] | A450 (Mouse Id1: Histidine [19]) [A450] | A450 [24] [A450] | Molecule | also measured |
| --- | --- | --- | --- | --- | --- | --- | --- | --- | --- | --- | --- | --- | --- | --- | --- | --- | --- | --- | --- | --- | --- |
| 0.728 | 1.22 | 0.048 | 0.052 | 0.057 | 0.05 | 0.048 | 0.052 | 0.046 | 1.86 | 0.047 | 0.046 | 2.76 | 3.15 | 0.209 | 0.362 | 0.043 | 0.045 | 0.068 | 0.052 | rabbit monoclonal anti-human Id1, clone #BCH-2/#5-3 (antibody) | A450 (Mouse Id2: Histidine [20]): 0.049 A450; A450 (Human Id2: Histidine [21]): 0.046 A450; A450 (Mouse Id3: Histidine [22]): 0.048 A450; A450 (Human Id3: Histidine [23]): 0.044 A450 |
| 1.12 | 1.7 | 0.049 | 0.049 | 1.39 | 0.054 | 0.048 | 0.05 | 0.047 | 2.17 | 0.049 | 0.047 | 2.88 | 3.02 | 0.31 | 0.569 | 0.045 | 0.046 | 0.424 | 0.05 | rabbit monoclonal anti-mouse/human Id1, clone #BCH-1/#195-14 (antibody) | A450 (Mouse Id2: Histidine [20]): 0.048 A450; A450 (Human Id2: Histidine [21]): 0.054 A450; A450 (Mouse Id3: Histidine [22]): 0.047 A450; A450 (Human Id3: Histidine [23]): 0.048 A450 |

| Molecule | A450 [1] [A450] | A450 [2] [A450] | A450 (Mouse Id4: Histidine [3]) [A450] | A450 (Human Id4: Histidine [4]) [A450] | A450 (Mouse Id1: Histidine [5]) [A450] | A450 (Mouse Id2: Histidine [6]) [A450] | A450 (Human Id2: Histidine [7]) [A450] | A450 (Mouse Id3: Histidine [8]) [A450] | A450 (Human Id3: Histidine [9]) [A450] | A450 [10] [A450] | A450 (Human Id4: Histidine [11]) [A450] | A450 (Human Id3: Histidine [12]) [A450] | A450 [13] [A450] | A450 [14] [A450] | A450 [15] [A450] | A450 [16] [A450] | A450 (Mouse Id4: Histidine [17]) [A450] | A450 (Human Id4: Histidine [18]) [A450] | A450 (Mouse Id1: Histidine [19]) [A450] | A450 [24] [A450] | also measured |
| --- | --- | --- | --- | --- | --- | --- | --- | --- | --- | --- | --- | --- | --- | --- | --- | --- | --- | --- | --- | --- | --- |
| rabbit monoclonal anti-mouse Id1, clone #BCH-1/#37-2 (antibody, V domains shown, Rabbit IgG from hybridoma, Protein G purified; also called m Id1 MoAb 37-2; Rabbit Monoclonal Anti-Mouse Id1 (#37-2)) VH: QSVEESGGRLVTPGTPLTLTCKVSGFDINSYAMDWFRQAPGKGLEWIGMMSTRGNTYYTSWAKGRFTISKTSSTTVDLKMTSLTTEDTATYFCARGGLWGPGTLVTVSS VL: RVLTQTASPVSAAVGGTVTINCQASQSVYNGNRLGWYQLKPGQSPKELIHDASTLASGVPSRFRGSGSGTQFTLTINDVQCDDAATYYCVGSYACSTGDCNVFGGGTEVVVK | 0.073 | 0.092 | – | – | – | – | – | – | – | 0.117 | – | – | 0.187 | 0.27 | 0.057 | 0.056 | – | – | – | 0.051 | – |
